Assay results reported in paper PMC2666983.

Target: T1, Ci-FoxA-a (Ci-Fkh/HNF-3beta) (Ciona intestinalis, UniProt Q4H3J7 131-225)
T1 sequence: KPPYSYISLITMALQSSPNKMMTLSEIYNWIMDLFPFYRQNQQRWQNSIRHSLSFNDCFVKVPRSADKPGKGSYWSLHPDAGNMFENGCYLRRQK
Assay: competition

B1: 27-52 Fox (distal) (dsDNA)
DNA 1: CTACACCCATATTTGAAGACCAAA
DNA 2: TTTGGTCTTCAAATATGGGTGTAG
binding result: binds
